Experimental findings from patent CN107236025A, “与cd56分子特异性结合的多肽及其应用” (GUANGZHOU YIDAI PHARMACEUTICAL TECHNOLOGY Co Ltd, priority 2017, dated 2017) are described below.

One data set relates to U2 OS细胞. Kind of data set: Cytotoxicity test (CCK8) on U2 OS cells. The class given is cell-based. The note with it: 0.1-100 μg/ml peptide, 72 h; versus medium without peptide; Fig. 5.
Data set [1] in a line: In vivo metabolism and distribution in mouse by fluorescence imaging. Also on record: species or system 小鼠.
Setting [2] is: female mouse, tail vein, 400 ul of 1 mg/ml, Fig. 7.

“SSVLTKWYLVCWSLGESISNERRKNFHLVGHWGCLRKLTFVVE [7号多肽]”: in the data set on U2 OS细胞, the “Toxicity to U2 OS cells (cell viability, CCK8)” value is recorded as “没有毒性作用”.

B1: SSVYCKQTNKKKRKERKRDTGMKGDIIGTGVNDLAPLRGPIKASTMVAVAQDMAGTGADFLFL (peptide)
chain: SSVYCKQTNKKKRKERKRDTGMKGDIIGTGVNDLAPLRGPIKASTMVAVAQDMAGTGADFLFL
With B1, in data set [1] (setting [2]), the “Distribution of peptide fluorescence after 1 h” value is recorded as “逐渐富集到小鼠肝、肾和肠” and the “Distribution of peptide fluorescence after 3.5 h” value is reported as “只留存于肝脏和肠腔”. Moreover, the Route of metabolism result in data set [1] (female mouse, tail vein, concluded from fluorescence imaging) was “主要经过肝脏代谢”. The “Peptide residue in liver, spleen, lung and kidney (frozen sections, confocal)” value in data set [1] (mouse, after 3.5 h of imaging, Fig. 8) is given as “各个脏器均有少量的多肽残留”. Moreover, in the data set with U2 OS细胞, the “Toxicity to U2 OS cells (cell viability, CCK8)” value is on record as “没有毒性作用”.
